Reference: article PMC10707181, “Neuronal Scaffold Protein ARMS Interacts with Synaptotagmin-4 C2AB through the Ankyrin Repeat Domain with an Unexpected Mode” (International Journal of Molecular Sciences, 2023)

T1: Syt4 132-425 R283A (Homo sapiens)
T1 chain: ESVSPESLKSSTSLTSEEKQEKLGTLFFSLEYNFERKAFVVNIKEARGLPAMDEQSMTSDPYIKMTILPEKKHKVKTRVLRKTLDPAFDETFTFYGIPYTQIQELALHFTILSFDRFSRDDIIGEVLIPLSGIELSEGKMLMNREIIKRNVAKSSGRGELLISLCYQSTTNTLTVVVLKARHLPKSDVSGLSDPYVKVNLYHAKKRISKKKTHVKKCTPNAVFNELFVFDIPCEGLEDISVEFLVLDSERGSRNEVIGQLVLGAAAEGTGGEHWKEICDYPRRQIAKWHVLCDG

T2: Syt4 132–425 Q186A (human, UniProt Q9H2B2-1 132-425, Q186A)
T2 sequence: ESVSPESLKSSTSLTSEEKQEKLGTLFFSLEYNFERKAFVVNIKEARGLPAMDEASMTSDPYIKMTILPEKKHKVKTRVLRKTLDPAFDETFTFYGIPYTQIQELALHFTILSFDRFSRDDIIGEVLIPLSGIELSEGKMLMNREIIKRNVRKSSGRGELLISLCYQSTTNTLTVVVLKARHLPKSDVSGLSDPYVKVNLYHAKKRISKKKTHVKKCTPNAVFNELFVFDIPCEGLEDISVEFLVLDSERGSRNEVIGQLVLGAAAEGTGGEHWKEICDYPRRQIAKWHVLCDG

T3: Syt4 132-425 R283A,K284A (Homo sapiens)
T3 chain: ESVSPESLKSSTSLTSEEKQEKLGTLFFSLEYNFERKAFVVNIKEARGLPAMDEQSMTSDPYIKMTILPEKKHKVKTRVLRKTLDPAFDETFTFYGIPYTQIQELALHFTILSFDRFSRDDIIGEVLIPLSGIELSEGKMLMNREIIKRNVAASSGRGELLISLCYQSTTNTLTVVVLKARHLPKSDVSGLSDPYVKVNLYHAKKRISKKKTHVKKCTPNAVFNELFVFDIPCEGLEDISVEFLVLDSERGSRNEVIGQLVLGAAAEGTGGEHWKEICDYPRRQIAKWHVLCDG

T4: Syt4 132-425 K279A,R280A (Homo sapiens)
T4 chain: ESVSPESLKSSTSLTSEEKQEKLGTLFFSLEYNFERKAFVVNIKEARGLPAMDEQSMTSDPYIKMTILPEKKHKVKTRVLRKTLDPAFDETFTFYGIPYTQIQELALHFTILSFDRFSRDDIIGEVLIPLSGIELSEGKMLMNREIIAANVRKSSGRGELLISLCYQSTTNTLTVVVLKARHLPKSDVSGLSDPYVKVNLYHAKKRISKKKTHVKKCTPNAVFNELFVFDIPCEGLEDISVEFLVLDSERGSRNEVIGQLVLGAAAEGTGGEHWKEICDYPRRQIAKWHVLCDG

T5: Syt4 132–425 (human, UniProt Q9H2B2-1 132-425)
T5 chain: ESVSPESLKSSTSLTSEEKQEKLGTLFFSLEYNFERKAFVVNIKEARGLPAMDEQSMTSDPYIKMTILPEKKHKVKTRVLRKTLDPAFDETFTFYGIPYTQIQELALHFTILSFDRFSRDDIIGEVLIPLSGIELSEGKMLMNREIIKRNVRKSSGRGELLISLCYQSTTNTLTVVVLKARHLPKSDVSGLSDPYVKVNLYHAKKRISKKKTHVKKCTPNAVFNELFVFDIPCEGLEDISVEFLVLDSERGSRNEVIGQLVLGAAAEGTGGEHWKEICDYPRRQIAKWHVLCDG

T6: Syt4 132–425 K284A (human, UniProt Q9H2B2-1 132-425, K284A)
T6 sequence: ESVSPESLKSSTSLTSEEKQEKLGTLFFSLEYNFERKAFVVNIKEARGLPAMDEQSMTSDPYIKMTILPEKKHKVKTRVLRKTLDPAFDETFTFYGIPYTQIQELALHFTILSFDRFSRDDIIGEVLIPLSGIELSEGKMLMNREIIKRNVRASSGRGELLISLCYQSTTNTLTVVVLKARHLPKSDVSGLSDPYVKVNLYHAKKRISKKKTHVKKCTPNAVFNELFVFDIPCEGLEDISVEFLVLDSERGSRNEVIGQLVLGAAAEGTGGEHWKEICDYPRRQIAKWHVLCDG

T7: Syt4 132-425 R288A (Homo sapiens)
T7 chain: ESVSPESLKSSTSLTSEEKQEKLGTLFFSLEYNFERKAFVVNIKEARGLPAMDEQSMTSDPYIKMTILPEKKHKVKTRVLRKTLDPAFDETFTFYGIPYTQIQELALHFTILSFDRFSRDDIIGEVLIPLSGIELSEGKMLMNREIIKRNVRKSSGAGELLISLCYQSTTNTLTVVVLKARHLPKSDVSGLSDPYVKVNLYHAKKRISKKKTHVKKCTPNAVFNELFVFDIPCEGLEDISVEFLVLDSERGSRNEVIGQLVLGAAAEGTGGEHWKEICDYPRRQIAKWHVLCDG

T8: Syt4 132-425 K279A,R280A,R283A (Homo sapiens)
T8 chain: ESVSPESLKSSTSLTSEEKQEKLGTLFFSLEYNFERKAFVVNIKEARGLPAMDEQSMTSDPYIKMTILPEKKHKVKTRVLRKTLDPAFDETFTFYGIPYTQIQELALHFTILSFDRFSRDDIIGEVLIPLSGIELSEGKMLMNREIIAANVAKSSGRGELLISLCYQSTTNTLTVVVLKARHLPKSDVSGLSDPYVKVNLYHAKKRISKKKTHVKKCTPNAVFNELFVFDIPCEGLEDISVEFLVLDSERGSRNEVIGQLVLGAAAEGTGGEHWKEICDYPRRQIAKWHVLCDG

T9: full length of the cytoplasmic region of Syt4 (CD, residues 41–425) (human, UniProt Q9H2B2-1 41-425)
T9 construct: also called Synaptotagmin-4 CD; source: E. coli BL21 (DE3), purified (Ni-NTA, size-exclusion chromatography)
T9 sequence (looked up): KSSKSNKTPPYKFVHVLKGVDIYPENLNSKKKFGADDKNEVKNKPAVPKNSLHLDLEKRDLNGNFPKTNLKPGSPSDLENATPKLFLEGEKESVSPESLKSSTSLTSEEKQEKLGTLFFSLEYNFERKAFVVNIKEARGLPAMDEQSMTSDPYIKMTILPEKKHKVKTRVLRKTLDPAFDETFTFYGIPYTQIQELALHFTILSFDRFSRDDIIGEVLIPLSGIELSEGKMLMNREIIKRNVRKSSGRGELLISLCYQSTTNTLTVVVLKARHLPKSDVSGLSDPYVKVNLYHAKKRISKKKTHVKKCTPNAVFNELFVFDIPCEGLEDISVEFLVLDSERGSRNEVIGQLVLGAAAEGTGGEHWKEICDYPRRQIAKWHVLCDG

T10: Syt4 C2AB (residues 151–425) (human, UniProt Q9H2B2-1 151-425)
T10 construct: also called Syt4 CAB; source: E. coli BL21 (DE3), purified (Ni-NTA, size-exclusion chromatography)
T10 sequence (looked up): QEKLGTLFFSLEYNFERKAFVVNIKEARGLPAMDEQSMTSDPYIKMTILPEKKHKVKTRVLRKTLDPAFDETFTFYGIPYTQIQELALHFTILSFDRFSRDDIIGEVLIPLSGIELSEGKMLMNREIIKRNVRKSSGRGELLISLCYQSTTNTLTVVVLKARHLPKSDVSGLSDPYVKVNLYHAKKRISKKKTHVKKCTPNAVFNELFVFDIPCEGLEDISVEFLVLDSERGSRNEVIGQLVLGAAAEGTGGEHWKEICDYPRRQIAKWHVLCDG


Legend:
Syt4 132-425 R283A = target: T1, Syt4 132-425 R283A; experiment: ITC
Syt4 132–425 Q186A = target: T2, Syt4 132–425 Q186A; experiment: ITC
Syt4 132-425 R283A,K284A = target: T3, Syt4 132-425 R283A,K284A; experiment: ITC
Syt4 132-425 K279A,R280A = target: T4, Syt4 132-425 K279A,R280A; experiment: ITC
Syt4 132–425 = target: T5, Syt4 132–425; experiment: ITC
Syt4 132–425 K284A = target: T6, Syt4 132–425 K284A; experiment: ITC
Syt4 132-425 R288A = target: T7, Syt4 132-425 R288A; experiment: ITC
[1] = target: T8, Syt4 132-425 K279A,R280A,R283A; experiment: ITC
[2] = target: T9, full length of the cytoplasmic region …; experiment: ITC; ARMS proteins (200 μM) in the syringe, Syt4 proteins (20 μM) in the cell; 25 °C; 50 mM Tris, 100 mM NaCl, 1 mM EDTA, 1 mM DTT, pH 7.8; one-site binding model; details: both partners purified
[3] = target: T10, Syt4 C2AB (residues 151–425); experiment: as above; details: both partners purified

Kd (Syt4 132-425 R283A)	Kd (Syt4 132–425 Q186A)	Kd (Syt4 132-425 R283A,K284A)	Kd (Syt4 132-425 K279A,R280A)	Kd (Syt4 132–425)	Kd (Syt4 132–425 K284A)	Kd (Syt4 132-425 R288A)	Kd [1]	Kd [2]	Kd [3]	Binder
4 µM	3 µM	4 µM	9 µM	12 µM	3 µM	10 µM	19 µM	~11 µM		ARMS ankyrin repeats 1–11 (R1-11, residues 1–365) (domain or fragment, rat, UniProt Q9EQG6 1-365, looked up, ARMS (Kidins220), rat, UniProt Q9EQG6, residues 1-365: ankyrin repeats 1-11; also called ARMS R1-11; ARMS R1-11 WT; source: E. coli BL21 (DE3), purified (Ni-NTA, size-exclusion chromatography)) MSVLISQSVINYVEEENIPALKALLEKCKDVDERNECGQTPLMLAAEQGNVEIVKELLKNGANCNLEDLDNWTALISASKEGHIHIVEELLKSGASLEHRDMGGWTALMWACYKGRTDVVELLLSHGANPSVTGLYSVYPIIWAAGRGHADIVHLLLQNGAKVNCSDKYGTTPLVWAARKGHLECVKHLLAMGADVDQEGANSMTALIVAVKGGYTQSVKEILKRNPNVNLTDKDGNTALMIASKEGHIEIVQDLLDAGTYVNIPDRSGDTVLIGAVRGGHVEIVRALLQKYADIDIRGQDNKTALYWAVEKGNATMVRDILQCNPDTEICTKDGETPLIKATKMRNIEVVELLLDKGAKVSAVD
									~11 µM	ARMS R1-8 (residues 1–270) (domain or fragment, rat, UniProt Q9EQG6 1-270, looked up, ARMS (Kidins220), rat, UniProt Q9EQG6, residues 1-270: ankyrin repeats 1-8; also called ARMS ankyrin repeats 1–8; source: E. coli BL21 (DE3), purified (Ni-NTA, size-exclusion chromatography)) MSVLISQSVINYVEEENIPALKALLEKCKDVDERNECGQTPLMLAAEQGNVEIVKELLKNGANCNLEDLDNWTALISASKEGHIHIVEELLKSGASLEHRDMGGWTALMWACYKGRTDVVELLLSHGANPSVTGLYSVYPIIWAAGRGHADIVHLLLQNGAKVNCSDKYGTTPLVWAARKGHLECVKHLLAMGADVDQEGANSMTALIVAVKGGYTQSVKEILKRNPNVNLTDKDGNTALMIASKEGHIEIVQDLLDAGTYVNIPDRSGD
